Measured values taken from US7407939B2, “Protein kinase inhibitors comprising ATP mimetics conjugated to peptides or peptidomimetics” (CureGenics Ltd., priority 2001, dated 2008).

System: PC-3 cells
Test: ssDNA apoptosis ELISA (induction of apoptosis in prostate cancer cells)
Type: cell-based
Conditions: 50 μM, optical density of treated divided by untreated cells
Description: Cells were assayed for Apoptosis using the ssDNA Apoptosis ELISA kit (Chemicon International Inc.). Cells were seeded in 96-well plates (5000 cells/well) and treated with different concentrations of the inhibitors. At different time point, plates were centrifuges at 200 g for 5 min, medium was removed and the cells were fixed with 80% methanol in PBS for 30 min at room temperature. Plates were dried by floating in a waterbath at 37° C. for 20 minutes. 50 μl of Formamide was added to each well and incubate at room temperature for 10 min. Plates were heated to 75° C. in a circulating waterbath for 10 min, cooled in refrigerator for 5 min, and then formamide was removed. […] Plates were monitored for colour development by ABTS using microplate reader at 405 nm.
DNA in apoptotic cells is sensitive to denaturation by formamide in contrast to necrotic cells. […] The specific denaturation was detected with monoclonal antibody to single stranded DNA. Using ssDNA Apoptosis ELISA kit (Chemicon International, Inc.) chimeric compounds were analyzed for their potential to induce apoptosis in PC-3 cells compared to TRAIL (TNF-related apoptosis-inducing ligand), a known apoptotic agent (R&D Systems, Inc.). Results are presented in values of apoptotic index which is calculated by dividing the optical density of treated and untreated cells.

B1: TRAIL: TNF-related apoptosis-inducing ligand, a known apoptotic agent (R&D Systems, Inc.) (protein, UniProt P50591 1-281, looked up)
Tumor necrosis factor ligand …: MAMMEVQGGPSLGQTCVLIVIFTVLLQSLCVAVTYVYFTNELKQMQDKYSKSGIACFLKEDDSYWDPNDEESMNSPCWQVKWQLRQLVRKMILRTSEETISTVQEKQQNISPLVRERGPQRVAAHITGTRGRSNTLSSPNSKNEKALGRKINSWESSRSGHSFLSNLHLRNGELVIHEKGFYYIYSQTYFRFQEEIKENTKNDKQMVQYIYKYTSYPDPILLMKSARNSCWSKDAEYGLYSIYQGGIFELKENDRIFVSVTNEHLIDMDHEASFFGAFLVG
Apoptotic index (48 hours): 2.3
